Source: US8957190B2, “Use of heat-resistant biotin-binding protein, and solid support having the protein attached thereto” (Japan Tobacco Inc., priority 2006, dated 2015)

How the values were obtained:
[1] = Heat resistance: fluorescent biotin-binding activity of heated biotin-binding proteins
Description: Based on the property of fluorescent biotin to lose its fluorescence intensity when bound to a biotin-binding site in a biotin-binding protein, tamavidin 2 was compared with streptavidin and avidin for biotin-binding capacity under high temperature conditions.
About 0.25 μg/μL TM2 and streptavidin were heated at room temperature, 50° C., 60° C., 70° C., 80° C. or 90° C. for 20 minutes. Solutions were prepared to contain the heat-treated TM2 or streptavidin at stepwise concentrations from 0 μL to 27 μL in 150 μL assay buffer (50 mM NaH2PO4, 100 mM NaCl, 1 mM EDTA (pH 7.5)). These solutions were each mixed with 50 μL (250 pmol) of a 5 pmol/μL fluorescent biotin solution (biotin-4-fluorescein; Molecular Probe) and allowed to stand at room temperature for 20 minutes, followed by measuring the fluorescence intensity with a Las-3000 system (FUJIFILM).
Heat resistance test on the biotin-binding proteins was accomplished as follows. About 0.25 μg/μL biotin-binding protein was heated at room temperature, 50° C., 60° C., 70° C., 80° C. or 90° C. for 20 minutes. Solutions were prepared to contain the heated biotin-binding protein at stepwise concentrations from 0 μL to 12 μL in 150 μL assay buffer. These solutions were each mixed with 50 μL (100 pmol) of a 2 pmol/μL fluorescent biotin solution and allowed to stand at room temperature for 20 minutes, followed by measuring the fluorescence intensity at Ex=460 nm and Em=525 nm with an Infinite M200 (TECAN).

[2] = Heat resistance: protein stability (heating, SDS-PAGE band quantification); format: physicochemical; settings: for tetramer dissociation upon addition of biotin: biotin added, after treatment at 95° C.; for heat resistance higher than that of streptavidin: difference of 50% band-intensity temperatures; for temperature which caused a 50% reduction in protein band intensity: heated 20 minutes, soluble protein, SDS-PAGE, no biotin; for heat resistance higher than in streptavidin (summary statement): summary in disclosure
Description: (§1) 0.2 μg/μL TM2 and 0.2 μg/μL streptavidin were heated in 10 μL (2 μg) volumes at room temperature, 50° C., 60° C., 70° C., 80° C., 90° C. or 99° C. for 20 minutes, followed by centrifugation at 15000 rpm for 10 minutes. Each supernatant (soluble protein) was suspended in an equal volume of 2×SDS sample buffer (100 mM Tris-HCl pH 6.8, 12% 2-mercaptoethanol, 2% SDS, 20% glycerol), heated at 95° C. for 10 minutes and then analyzed by SDS-PAGE. Protein bands were detected by CBB staining. Using a Las-3000 system (FUJIFILM), a calibration curve was prepared based on quantification markers (LMW ELECTROPHORESIS CALIBRATION KIT; Pharmacia Biotech) and used to quantify the protein bands. The temperature which caused a 50% reduction in protein band intensity was 71° C. for streptavidin, whereas it was 87° C. for tamavidin 2.
as §1, with “Purified tamavidin 1 at a concentration of 0.2” for “0.2”, “was” for “TM2 and 0.2 μg/μL streptavidin were”, “As a result, the” for “The”, “76°” for “71° C. for streptavidin, whereas it was 87°”, “1.” for “2.”

salmon sperm DNA = experiment: Test for non-specific binding to DNA (slot blot, antibody detection); settings: 25 μg/mL protein, salmon sperm DNA 10 μg to 0.3 μg on membrane
Description: TM2 was analyzed for its non-specific binding to DNA. Serial dilutions of salmon sperm DNA (10 μg to 0.3 μg) in 2×SSC buffer were alkali-denatured and adsorbed onto a Hybond N+ membrane (Amersham Biosciences) using Bio-Dot SF (BIO-RAD). The membrane was blocked with 5×Denhardt's solution (0.1% BSA, 0.1% Ficoll, 0, 1% polyvinylpyrrolidone) and then immersed in a 25 μg/mL TM2, streptavidin or avidin solution at room temperature for 90 minutes. The membrane was then washed three times with TTBS buffer (TBS buffer containing 0.05% Tween 20) at room temperature for 5 minutes. The membrane was blocked with TBS buffer containing 0.5% skimmed milk and 0.01% Tween 20 for 1 hour. The primary antibodies used were rabbit anti-TM2 antibody (purified as described above) for TM2, rabbit anti-streptavidin antibody (SIGMA) for streptavidin, and rabbit anti-avidin antibody (Abcam) for avidin, which were diluted to give the same antibody titer before use. Antigen-antibody reaction with each primary antibody was performed overnight at room temperature. […] The membrane was washed three times with TTBS buffer at room temperature for 5 minutes, and then developed with an Alkaline Phosphatase substrate kit II, vector Black (Funakoshi Co., Ltd., Japan), followed by quantification with a Las-3000 system (FUJIFILM).

[3] = Kinetic analysis of tamavidin 2-biotin interaction using a Biacore 3000 biosensor (surface plasmon resonance); format: binding; settings: Biacore 3000, 25° C.
Description: Kinetic Analysis of Tamavidin 2 (TM2)-Biotin Interaction Using a Biacore Biosensor
Highly-purified BSA (2 mg, Sigma) and NHS-biotin (1 mg, Pierce) were dissolved in 1 ml of 50 mM sodium borate pH 8.0 and incubated at 4° C. for 2 hours. The NHS-biotin (EZ-Link NHS-LC-LC-Biotin) had been dissolved in a small volume of DMSO before addition. This solution was introduced into a dialysis tube (MWCO 6-8,000) and dialyzed overnight at 4° C. against 50 mM sodium carbonate pH 6.7. The biotin-BSA conjugate thus prepared (MW 67 kDa, 30 μM) was used as a ligand (a substance immobilized on a sensor chip) for a Biacore® biosensor. On the other hand, recombinant tamavidin 2 was prepared as an analyte (a substance flowing through channels) and analyzed for intermolecular interactions using a Biacore® 3000 (a biosensor designed on the principle of surface plasmon resonance, Biacore Inc.). Biotin-BSA and BSA alone (serving as a negative control) were each immobilized on CM5 sensor chips by amine coupling techniques. Their immobilized amount was adjusted to around 200 RU. BSA-immobilized chips were placed in flow cells 1 and 3, while biotin-BSA-immobilized chips were placed in flow cells 2 and 4. Tamavidin 2 was loaded into flow cells 1 and 2, while streptavidin was loaded into flow cells 3 and 4, each being loaded at a flow rate of 20 μl/min for 2 minutes in running buffer [10 mM HEPES pH 7.4, 150 mM NaCl, 3 mM EDTA, 0.005% Surfactant 20 (Biacore Inc.)]. The samples were then monitored for their dissociation over 60 minutes. […] The dissociation constant (Kd) was determined from kd/ka.
It should be noted that when the regeneration step was skipped, Rmax (the maximum binding amount of an analyte) was reduced ever time the measurement at each concentration was made. For this reason, Rmax was calculated by local fitting for each concentration during analysis. […]

[4] = Activity measurement by means of fluorescent biotin (method of Kada et al.); format: binding; settings: room temperature
Description: By means of fluorescent biotin, tamavidin 2 was measured for its biotin-binding activity according to the method of Kada et al. (Biochim. Biophys. Acta., 1427: 44-48, (1999)). Solutions were prepared to contain the purified TM2 at stepwise concentrations from 0 pmol to 486 pmol in 200 μl assay buffer (50 mM NaH2PO4, 100 mM NaCl, 1 mM EDTA (pH 7.5)). These solutions were each mixed with 50 μL (1 nmol) of a 20 pmol/μL fluorescent biotin solution (biotin-4-fluorescein; Molecular Probe) and allowed to stand at room temperature for 10 minutes, followed by measuring the fluorescence intensity with a Las-3000 system (FUJIFILM). As a result, 0.274 nmol of TM2 was bound to nmol of fluorescent biotin. Namely, 3.6 mol of fluorescent biotin was bound to 1 mol of tamavidin. […] In the case of streptavidin, 3.4 mol of fluorescent biotin was bound per mol of streptavidin.

[5] = Fluorescent biotin-binding activity of tamavidin 1 after heat treatment at 70° C.; settings: supernatant treated at 70° C. for 10 minutes, incubation at room temperature
Description: Fluorescent biotin-binding activity was measured for tamavidin 1 in the above centrifuged supernatant after heat treatment at 70° C. The same procedure as used for tamavidin 2 was repeated for this purpose. Incubation with fluorescent biotin was performed at room temperature.

[6] = 1:1 binding model, biotin-BSA ligand

Molecule	temperature which caused a 50% reduction in fluorescence intensity decrement compared to the unheated sample ([1]; free protein, heated 20 minutes)	change in binding to fluorescent biotin compared to the room temperature value ([1]; heated at 70° C. or below, 20 minutes)	retained fluorescent biotin-binding activity ([1]; heated at 80° C., 20 minutes)	tetramer dissociation upon addition of biotin [2]	heat resistance higher than that of streptavidin [2]	temperature which caused a 50% reduction in protein band intensity [2]	heat resistance higher than in streptavidin (summary statement) [2]	non-specific binding to DNA (staining intensity versus DNA concentration) (salmon sperm DNA)	Association rate constant ks [3, 6]	Dissociation rate constant kd [3, 6]	Kd ([3]; determined from kd/ka, read-out: Dissociation constant Kd)	amount of TM2 bound to nmol of fluorescent biotin ([4]; 1 nmol fluorescent biotin added)	fluorescent biotin bound per mol of protein ([4]; 10 minutes)	binding to fluorescent biotin after heat treatment [5]
Tamavidin 2: biotin-binding protein (SEQ ID NO: 4) from Pleurotus cornucopiae var. citrinopileatus, recombinant from E. coli, tetramer (protein, listed as Pleurotus cornucopiae, tetramer) MSDVQSSLTGTWYNELNSKMELTANKDGTLTGKYLSKVGDVYVPYPLSGRYNLQPPAGQGVALGWAVSWENSKIHSATTWSGQFFSESSPVILTQWLLSSSTARGDVWESTLVGNDSFTKTAPTEQQIAHAQLHCRAPRLK	85 °C	no change	82%	tetramer dissociation was not observed	≥ 15 °C	87 °C	≥ 10 °C	not strongly affected by DNA concentration	919000 M⁻¹ s⁻¹	6.83e-06 s⁻¹	7.43 pM	0.274 nmol	3.6 mol	
Tamavidin 1: biotin-binding protein (SEQ ID NO: 2) purified from the edible mushroom Pleurotus cornucopiae var. citrinopileatus; recombinant from E. coli (protein, listed as Pleurotus cornucopiae) MKDVQSLLTGTWYNELGSTMNLTANKDGSLTGTYHSNVGEVPPTYHLSGRYNLQPPSGQGVTLGWAVSFENTSANVHSVSTWSGQYFSEPAEVILTQWLLSRSSEREDLWQSTHVGHDEFSKTKPTKEKIAQAQLLRRGLKFE				tetramer dissociation was not observed	5 °C	76 °C	5 °C							found to bind to fluorescent biotin
